Assay results published in article PMC6589784.
Where two headings read alike, the source gives them in different places. Values belong to the substance of their own block, whether it stands above or below them.

Tests used:
[1] = target: Mg-ATP-actin (skeletal muscle actin, assembled into filaments) (rabbit or chicken) (UniProt P68135); experiment: single-molecule two-color TIRFM
[2] = target: Mg-ATP-actin (skeletal muscle actin, assembled into filaments) (rabbit or chicken) (UniProt P68135); experiment: single-molecule two-color TIRFM; remark: listed apart in the source
[3] = target: Mg-ATP-actin (skeletal muscle actin, assembled into filaments) (rabbit or chicken) (UniProt P68135); experiment: single-molecule two-color TIRFM; remark: listed apart in the source
[4] = target: Mg-ATP-actin (skeletal muscle actin, assembled into filaments) (rabbit or chicken) (UniProt P68135); experiment: single-color TIRFM of actin elongation rates
[5] = target: Mg-ATP-actin (skeletal muscle actin, assembled into filaments) (rabbit or chicken) (UniProt P68135); experiment: bulk seeded pyrene actin assembly

processive run length tau, 2-filament trailing barbed ends [1]: 8.9 s
processive run length tau, 3- or more filament trailing barbed ends [1]: 11.2 s
Substance: MBP-SNAP(549)-EnaΔLΔCC-Foldon

processive run length tau, 2-filament trailing barbed ends [1]: 1.5 s
Substance: MBP-SNAP(549)-EnaΔLΔCC-GCN4

average processive run length tau, leading barbed ends [1]: 8.4 s
average processive run length tau, trailing barbed ends [1]: 23.7 s
average residence time tau, single filament barbed ends [1]: 10 s
average residence time tau, trailing barbed ends of a two-filament bundle [1]: 21.7 s
average processive run length tau, leading barbed ends [2]: 10.1 s
average processive run length tau, trailing barbed ends [2]: 28.1 s
average residence time tau, single filament barbed ends [3]: 8.9 s
average residence time tau, trailing barbed ends of a two-filament bundle [3]: 16.8 s
Substance: SNAP(549)-EnaΔL (from UniProt Q8T4F7 1-980) (natural protein)

average residence time tau, single filament barbed ends [1]: 1.2 s
processive run length tau, trailing barbed ends of 2-filament fascin bundles [1]: 2.9 s
Substance: SNAP(549)-UNC-34 (natural protein)

average residence time tau, single filament barbed ends [1]: 1 s
processive run length tau, trailing barbed ends of 2-filament fascin bundles [1]: 2.6 s
Substance: SNAP(549)-VASP (from UniProt P50552 1-380) (natural protein)

Kd [4]: 3.2 nM
Kd [5]: 0.7 nM
Substance: unlabeled EnaΔL (from UniProt Q8T4F7 1-980) (natural protein)

Kd [4]: 6.7 nM
Kd [5]: 10.2 nM
Substance: unlabeled UNC-34 (natural protein)

Kd [4]: 12.2 nM
Kd [5]: 10.8 nM
Substance: unlabeled VASP (from UniProt P50552 1-380) (natural protein)
